T1: RHPN1, Q8TCX5
T1 sequence (Q8TCX5 508-602, limits assumed, looked up): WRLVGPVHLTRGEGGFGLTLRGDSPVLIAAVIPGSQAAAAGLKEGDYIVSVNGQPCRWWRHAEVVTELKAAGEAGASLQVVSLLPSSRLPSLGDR

T2: ARHGEF11, O15085
T2 sequence (O15085 42-136, limits assumed, looked up): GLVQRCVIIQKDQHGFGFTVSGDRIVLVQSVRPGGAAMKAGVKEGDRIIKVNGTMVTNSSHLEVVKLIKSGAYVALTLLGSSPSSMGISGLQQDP

T3: PDZRN3_1, Q9UPQ7
T3 sequence (Q9UPQ7 244-349, limits assumed, looked up): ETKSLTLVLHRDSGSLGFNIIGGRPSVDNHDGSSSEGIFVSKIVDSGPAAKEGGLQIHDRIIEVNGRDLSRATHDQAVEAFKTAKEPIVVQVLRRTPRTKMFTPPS

T4: RAPGEF6, Q8TEU7
T4 sequence (Q8TEU7 525-625, limits assumed, looked up): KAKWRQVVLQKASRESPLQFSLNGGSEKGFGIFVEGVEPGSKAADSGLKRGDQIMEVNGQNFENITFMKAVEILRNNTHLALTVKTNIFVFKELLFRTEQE

T5: APBA1_1, Q02410
T5 sequence (Q02410 651-752, limits assumed, looked up): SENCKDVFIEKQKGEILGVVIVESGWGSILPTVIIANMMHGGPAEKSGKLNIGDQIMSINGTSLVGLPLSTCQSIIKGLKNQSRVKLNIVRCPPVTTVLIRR

T6: RADIL, Q96JH8
T6 sequence (Q96JH8 971-1071, limits assumed, looked up): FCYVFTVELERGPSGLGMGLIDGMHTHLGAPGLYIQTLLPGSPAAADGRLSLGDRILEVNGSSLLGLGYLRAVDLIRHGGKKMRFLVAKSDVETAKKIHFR

T7: MPP7, Q5T2T1
T7 sequence (Q5T2T1 134-230, limits assumed, looked up): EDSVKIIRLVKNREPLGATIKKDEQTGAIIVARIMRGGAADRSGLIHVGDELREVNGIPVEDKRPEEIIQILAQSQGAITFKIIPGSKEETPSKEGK

T8: GRIP1_2, Q9Y3R0
T8 sequence (Q9Y3R0 145-248, limits assumed, looked up): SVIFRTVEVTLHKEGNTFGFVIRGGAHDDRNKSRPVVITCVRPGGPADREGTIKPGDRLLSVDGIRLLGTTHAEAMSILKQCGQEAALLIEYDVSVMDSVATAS

T9: NHERF3_3, Q5T2W1
T9 sequence (Q5T2W1 238-333, limits assumed, looked up): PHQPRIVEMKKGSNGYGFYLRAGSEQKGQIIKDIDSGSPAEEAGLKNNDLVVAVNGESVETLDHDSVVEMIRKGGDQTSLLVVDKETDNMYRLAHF

T10: SNTA1, Q13424
T10 sequence (Q13424 82-180, limits assumed, looked up): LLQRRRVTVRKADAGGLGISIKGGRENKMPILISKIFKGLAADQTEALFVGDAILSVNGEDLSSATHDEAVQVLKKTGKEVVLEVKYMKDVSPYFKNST

T11: SNTG2, Q9NY99
T11 sequence (Q9NY99 68-166, limits assumed, looked up): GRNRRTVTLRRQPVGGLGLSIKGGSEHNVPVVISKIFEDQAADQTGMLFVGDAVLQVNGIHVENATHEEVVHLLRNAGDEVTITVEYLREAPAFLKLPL


Tests used:
Experiment in all cases: holdup assay
Set-up in all cases: key: below the threshold = too weak to quantify, mostly under pKd 3.1 to 4
Conditions in all cases: plain residues with an end cap or a label only (N-terminal biotin on a linker: ttds)
DLG5_1, Q8TDM6 = molecular target: DLG5_1, Q8TDM6
RHPN1, Q8TCX5 = molecular target: T1, RHPN1, Q8TCX5
ARHGEF12, Q9NZN5-2 = molecular target: ARHGEF12, Q9NZN5-2
IL16_3, Q14005 = molecular target: IL16_3, Q14005
ARHGEF11, O15085 = molecular target: T2, ARHGEF11, O15085
Inadl_3, Q8NI35 = molecular target: Inadl_3, Q8NI35
MAST1, Q9Y2H9 = molecular target: MAST1, Q9Y2H9
IL16_1, Q14005 = molecular target: IL16_1, Q14005
PDZRN3_1, Q9UPQ7 = molecular target: T3, PDZRN3_1, Q9UPQ7
RAPGEF6, Q8TEU7 = molecular target: T4, RAPGEF6, Q8TEU7
TJP1_3, Q07157 = molecular target: TJP1_3, Q07157
APBA1_1, Q02410 = molecular target: T5, APBA1_1, Q02410
RADIL, Q96JH8 = molecular target: T6, RADIL, Q96JH8
PTPN3, P26045 = molecular target: PTPN3, P26045
MAGI3_2, Q5TCQ9 = molecular target: MAGI3_2, Q5TCQ9
LNX1_2, Q8TBB1 = molecular target: LNX1_2, Q8TBB1
MPP7, Q5T2T1 = molecular target: T7, MPP7, Q5T2T1
PDLIM1, O00151 = molecular target: PDLIM1, O00151
Inadl_5, Q8NI35 = molecular target: Inadl_5, Q8NI35
GRID2IP_2, A4D2P6 = molecular target: GRID2IP_2, A4D2P6
HTRA1, Q92743 = molecular target: HTRA1, Q92743
MAGI2_2, Q86UL8 = molecular target: MAGI2_2, Q86UL8
GRIP1_2, Q9Y3R0 = molecular target: T8, GRIP1_2, Q9Y3R0
NHERF3_3, Q5T2W1 = molecular target: T9, NHERF3_3, Q5T2W1
SNTA1, Q13424 = molecular target: T10, SNTA1, Q13424
FRMPD3, Q5JV73 = molecular target: FRMPD3, Q5JV73
SNTG2, Q9NY99 = molecular target: T11, SNTG2, Q9NY99

Sequence of PTPN3, P26045 (P26045 505-587): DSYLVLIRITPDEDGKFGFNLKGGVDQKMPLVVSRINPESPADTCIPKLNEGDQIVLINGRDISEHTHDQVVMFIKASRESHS
Sequence of IL16_1, Q14005 (Q14005 210-306): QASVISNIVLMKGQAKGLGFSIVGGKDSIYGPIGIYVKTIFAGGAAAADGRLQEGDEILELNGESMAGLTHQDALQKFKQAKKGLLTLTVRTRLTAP
Sequence of Inadl_3, Q8NI35 (Q8NI35 359-469): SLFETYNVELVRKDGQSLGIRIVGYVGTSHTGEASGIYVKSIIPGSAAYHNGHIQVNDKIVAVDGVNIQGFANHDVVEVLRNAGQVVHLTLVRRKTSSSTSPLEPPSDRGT
Sequence of MAGI2_2, Q86UL8 (Q86UL8 410-522): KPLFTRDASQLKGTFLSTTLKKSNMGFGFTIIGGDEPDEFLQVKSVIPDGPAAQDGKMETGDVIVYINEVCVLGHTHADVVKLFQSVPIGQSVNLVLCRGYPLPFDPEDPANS
Sequence of PDLIM1, O00151 (O00151 1-87): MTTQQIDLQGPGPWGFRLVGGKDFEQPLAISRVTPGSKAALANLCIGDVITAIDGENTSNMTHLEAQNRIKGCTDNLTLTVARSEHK
Sequence of ARHGEF12, Q9NZN5-2 (Q9NZN5 other isoform, or with tags, fused parts or gaps): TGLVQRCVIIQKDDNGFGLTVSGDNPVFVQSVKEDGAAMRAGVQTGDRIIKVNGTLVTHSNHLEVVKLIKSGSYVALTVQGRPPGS
Sequence of GRID2IP_2, A4D2P6 (A4D2P6 272-370): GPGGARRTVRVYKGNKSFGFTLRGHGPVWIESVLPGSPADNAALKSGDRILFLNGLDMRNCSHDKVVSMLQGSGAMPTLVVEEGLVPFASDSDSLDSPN
Sequence of DLG5_1, Q8TDM6 (Q8TDM6 617-713): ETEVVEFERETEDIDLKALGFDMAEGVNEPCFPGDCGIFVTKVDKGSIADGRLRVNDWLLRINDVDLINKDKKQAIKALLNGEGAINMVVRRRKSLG
Sequence of MAST1, Q9Y2H9 (Q9Y2H9 962-1065): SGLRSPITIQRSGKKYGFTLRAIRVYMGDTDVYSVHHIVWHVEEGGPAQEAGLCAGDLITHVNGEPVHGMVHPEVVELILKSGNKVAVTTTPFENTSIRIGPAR
Sequence of Inadl_5, Q8NI35 (Q8NI35 673-780): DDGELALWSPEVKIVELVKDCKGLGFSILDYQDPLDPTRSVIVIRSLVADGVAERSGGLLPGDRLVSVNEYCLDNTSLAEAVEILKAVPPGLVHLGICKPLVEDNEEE
Sequence of LNX1_2, Q8TBB1 (Q8TBB1 371-470): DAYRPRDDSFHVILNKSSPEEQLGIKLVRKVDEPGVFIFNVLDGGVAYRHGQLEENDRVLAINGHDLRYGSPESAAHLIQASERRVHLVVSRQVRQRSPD
Sequence of IL16_3, Q14005 (Q14005 1107-1207): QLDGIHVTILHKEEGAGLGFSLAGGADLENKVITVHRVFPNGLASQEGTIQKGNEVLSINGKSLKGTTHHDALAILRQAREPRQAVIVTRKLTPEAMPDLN
Sequence of HTRA1, Q92743 (Q92743 360-477): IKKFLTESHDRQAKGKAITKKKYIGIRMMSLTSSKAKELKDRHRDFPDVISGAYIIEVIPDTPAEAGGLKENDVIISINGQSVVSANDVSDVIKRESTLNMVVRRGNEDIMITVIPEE
Sequence of MAGI3_2, Q5TCQ9 (Q5TCQ9 398-503): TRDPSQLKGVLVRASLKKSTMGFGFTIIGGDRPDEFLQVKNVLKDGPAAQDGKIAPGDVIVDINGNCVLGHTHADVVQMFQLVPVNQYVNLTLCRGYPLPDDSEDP
Sequence of FRMPD3, Q5JV73 (Q5JV73 12-100): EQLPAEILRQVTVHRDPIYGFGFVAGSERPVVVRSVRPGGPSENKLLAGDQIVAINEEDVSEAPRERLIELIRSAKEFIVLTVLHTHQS
Sequence of TJP1_3, Q07157 (Q07157 416-512): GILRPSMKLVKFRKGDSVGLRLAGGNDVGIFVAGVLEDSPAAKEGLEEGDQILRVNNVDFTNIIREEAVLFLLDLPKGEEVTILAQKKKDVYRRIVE

| Binder | pKd (DLG5_1, Q8TDM6) | pKd (RHPN1, Q8TCX5) | pKd (ARHGEF12, Q9NZN5-2) | pKd (IL16_3, Q14005) | pKd (ARHGEF11, O15085) | pKd (Inadl_3, Q8NI35) | pKd (MAST1, Q9Y2H9) | pKd (IL16_1, Q14005) | pKd (PDZRN3_1, Q9UPQ7) | pKd (RAPGEF6, Q8TEU7) | pKd (TJP1_3, Q07157) | pKd (APBA1_1, Q02410) | pKd (RADIL, Q96JH8) | pKd (PTPN3, P26045) | pKd (MAGI3_2, Q5TCQ9) | pKd (LNX1_2, Q8TBB1) | pKd (MPP7, Q5T2T1) | pKd (PDLIM1, O00151) | pKd (Inadl_5, Q8NI35) | pKd (GRID2IP_2, A4D2P6) | also measured |
| --- | --- | --- | --- | --- | --- | --- | --- | --- | --- | --- | --- | --- | --- | --- | --- | --- | --- | --- | --- | --- | --- |
| RLQRRRETQV [HPV18-E6, P06463] | below the threshold | 3.63 | 3.91 | below the threshold | 3.66 | below the threshold | 5.33 | below the threshold | 4.82 | below the threshold | below the threshold | below the threshold | 3.28 | 4.49 | 5.56 | below the threshold | below the threshold | below the threshold | 3.52 | below the threshold | pKd (HTRA1, Q92743): below the threshold; pKd (MAGI2_2, Q86UL8): 5.16; pKd (GRIP1_2, Q9Y3R0): below the threshold; pKd (NHERF3_3, Q5T2W1): below the threshold; pKd (SNTA1, Q13424): 4.7; pKd (FRMPD3, Q5JV73): below the threshold; pKd (SNTG2, Q9NY99): 4.03 |
| SSLQSLETSV [ATP2B4, P23634] | below the threshold | 4.58 | 4.4 | below the threshold | 4.43 | 3.56 | 5.26 | 4.7 | 5.15 | 3.72 | below the threshold | below the threshold | 3.69 | 5.12 | 4.79 | 3.7 | below the threshold | 3.66 | below the threshold | below the threshold | pKd (HTRA1, Q92743): 3.9; pKd (MAGI2_2, Q86UL8): 4.49; pKd (GRIP1_2, Q9Y3R0): 3.58; pKd (NHERF3_3, Q5T2W1): below the threshold; pKd (SNTA1, Q13424): 4.91; pKd (FRMPD3, Q5JV73): below the threshold; pKd (SNTG2, Q9NY99): 4.89 |
| RLPKIKETTV [FRMPD4, Q14CM0] | below the threshold | 4.19 | 4.23 | below the threshold | 3.71 | below the threshold | 4.26 | 4.07 | 4.47 | below the threshold | below the threshold | below the threshold | below the threshold | 4.89 | 5.27 | 3.42 | below the threshold | below the threshold | below the threshold | 3.74 | pKd (HTRA1, Q92743): 3.64; pKd (MAGI2_2, Q86UL8): 4.73; pKd (GRIP1_2, Q9Y3R0): below the threshold; pKd (NHERF3_3, Q5T2W1): below the threshold; pKd (SNTA1, Q13424): 6.66; pKd (FRMPD3, Q5JV73): below the threshold; pKd (SNTG2, Q9NY99): 5.3 |
